Here are results for 1 protein from article PMC7737156, “A 3.4-Å cryo-electron microscopy structure of the human coronavirus spike trimer computationally derived from vitrified NL63 virus particles” (QRB Discovery, 2020).

The data set concerns the molecule itself. Briefly: cryo-EM structure; single-particle cryo-EM of purified, vitrified HCoV-NL63 virions without chemical fixative; spikes extracted computationally from the micrographs; refined with C3 symmetry (3.4 Å) and without (3.7 Å); virus resuspension buffer 20 mM Tris pH 8.0, 120 mM NaCl, 1 mM EDTA.

B1: HCoV-NL63 coronavirus spike glycoprotein (natural protein)
chain: CNSNANLSMLQLGVPDNSSTIVTGLLPTHWFCANQSTSVYSANGFFYIDVGNHRSAFALHTGYYDANQYYIYVTNEIGLNASVTLKICKFSRNTTFDFLSNASSSFDCIVNLLFTEQLGAPLGITISGETVRLHLYNVTRTFYVPAAYKLTKLSVKCYFNYSCVFSVVNATVTVNVTTHNGRVVNYTVCDDCNGYTDNIFSVQQDGRIPNGFPFNNWFLLTNGSTLVDGVSRLYQPLRLTCLWPVPGLKSSTGFVYFNATGSDVNCNGYQHNSVVDVMRYNLNFSANSLDNLKSGVIVFKTLQYDVLFYCSNSSSGVLDTTIPFGPSSQPYYCFINSTINTTHVSTFVGILPPTVREIVVARTGQFYINGFKYFDLGFIEAVNFNVTTASATDFWTVAFATFVDVLVNVSATNIQNLLYCDSPFEKLQCEHLQFGLQDGFYSANFLDDNVLPETYVALPIYYQHTDINFTATASFGGSCYVCKPHQVNISLNGNTSVCVRTSHFSIRYIYNRVKSGSPGDSSWHIYLKSGTCPFSFSKLNNFQKFKTICFSTVEVPGSCNFPLEATWHYTSYTIVGALYVTWSEGNSITGVPYPVSGIREFSNLVLNNCTKYNIYDYVGTGIIRSSNQSLAGGITYVSNSGNLLGFKNVSTGNIFIVTPCNQPDQVAVYQQSIIGAMTAVNESRYGLQNLLQLPNFYYVSNGGNNCTTAVMTYSNFGICADGSLIPVRPRNSSDNGISAIITANLSIPSNWTTSVQVEYLQITSTPIVVDCATYVCNGNPRCKNLLKQYTSACKTIEDALRLSAHLETNDVSSMLTFDSNAFSLANVTSFGDYNLSSVLPQRNIRSSRIAGRSALEDLLFSKVVTSGLGTVDVDYKSCTKGLSIADLACAQYYNGIMVLPGVADAERMAMYTGSLIGGMVLGGLTSAAAIPFSLALQARLNYVALQTDVLQENQKILAASFNKAINNIVASFSSVNDAITQTAEAIHTVTIALNKIQDVVNQQGSALNHLTSQLRHNFQAISNSIQAIYDRLDSIQADQQVDRLITGRLAALNAFVSQVLNKYTEVRGSRRLAQQKINECVKSQSNRYGFCGNGTHIFSIVNSAPDGLLFLHTVLLPTDYKNVKAWSGICVDGIYGYVLRQPNLVLYSDNGVFRVTSRVMFQPRLPVLSDFVQIYNCNVTFVNISRVELHTVIPDYVDVNKTLQEFAQNLPKYVKPNFDLTPFNLTYLNLSSELKQLEAKTASLFQTTVELQGLIDQINSTYVDLKLLNRFENYIKWPWWVWLIISVVFVVLLSLLVFCCLSTGCCGCCNCLTSSMRGCCDCGSTKLPYYEFEKVHVQ
modifications: glycosylated; N-linked glycan density at Asn24 and Asn203 and O-linked glycan density at Ser496 newly seen here, besides the glycan sites seen before in EMD-8331
notes: Spike glycoprotein of human coronavirus NL63, membrane-anchored on native virions, pre-fusion state; model built from PDB 5SZS with residues 883-889 and 993-1000 added; Native spike on the virion, no stabilising mutations and no tags; the cited ectodomain structure PDB 5SZS is another construct (purified ectodomain made in insect cells); also called S trimer; HCoV-NL63 spike (S) trimer; source: …
One may read the stoichiometry N as a count of units in the complex or per binding partner. Turning to B1, the “stoichiometry N” value turned out to be 3.
